Assay results as given in patent EP1852441B1 (The Burnham Institute, dated 2004).
Where no end group is shown, it is not given here.

How the values were obtained:
[1] = target: T1, EphB4 Fc; assay: immobilized biotinylated peptide capturing Eph receptor Fc
T1 construct: also called EpbB4

[2] = target: T2, histidine-tagged mouse EphA2 Fc fusion protein (mouse, UniProt Q03145 26-535, limits assumed); assay: SPR (BIAcore 3000), EphA2 Fc coupled to the chip, equilibrium binding
T2 construct: Bought; also called Eph2 Fc; not shown: Fc region; histidine tag
T2 sequence (Q03145 26-535 limits assumed): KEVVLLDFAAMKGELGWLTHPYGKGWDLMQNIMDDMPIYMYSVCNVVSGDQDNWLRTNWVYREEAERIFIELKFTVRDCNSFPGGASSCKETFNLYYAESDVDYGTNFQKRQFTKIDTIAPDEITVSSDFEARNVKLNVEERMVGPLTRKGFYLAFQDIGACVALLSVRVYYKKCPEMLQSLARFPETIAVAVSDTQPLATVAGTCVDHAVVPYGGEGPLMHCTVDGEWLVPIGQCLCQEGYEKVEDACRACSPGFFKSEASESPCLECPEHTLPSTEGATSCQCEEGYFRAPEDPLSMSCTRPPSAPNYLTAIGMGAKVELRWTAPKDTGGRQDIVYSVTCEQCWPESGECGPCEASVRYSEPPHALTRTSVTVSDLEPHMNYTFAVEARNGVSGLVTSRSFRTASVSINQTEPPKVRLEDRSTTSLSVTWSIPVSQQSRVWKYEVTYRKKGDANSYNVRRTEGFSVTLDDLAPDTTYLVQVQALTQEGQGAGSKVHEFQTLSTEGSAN

T1 sequence (P54761 16-539): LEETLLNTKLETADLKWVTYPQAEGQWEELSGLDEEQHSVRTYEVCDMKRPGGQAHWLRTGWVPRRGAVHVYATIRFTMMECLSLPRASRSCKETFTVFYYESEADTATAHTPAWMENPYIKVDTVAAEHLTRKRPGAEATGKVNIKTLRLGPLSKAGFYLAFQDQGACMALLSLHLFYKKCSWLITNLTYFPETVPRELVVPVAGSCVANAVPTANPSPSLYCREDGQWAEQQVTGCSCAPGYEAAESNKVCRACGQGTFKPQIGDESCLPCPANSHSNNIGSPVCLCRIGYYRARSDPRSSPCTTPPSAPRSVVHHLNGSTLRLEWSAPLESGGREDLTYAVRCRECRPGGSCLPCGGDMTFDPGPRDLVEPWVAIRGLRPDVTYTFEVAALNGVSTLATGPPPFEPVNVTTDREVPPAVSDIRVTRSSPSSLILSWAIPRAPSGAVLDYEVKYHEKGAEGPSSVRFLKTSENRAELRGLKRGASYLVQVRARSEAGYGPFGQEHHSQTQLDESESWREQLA

fold more EphB4 bound than other EphB family receptors [1] | Kd [2] | Binder
4 fold | – | DALNDWLLFRPWGSGSK (also: biotinylated (position not given here)) [synthetic DAL peptide (DALNDWLLFRPW)]
– | 678 nM | SWLAYPGAVSYRGSGSK (also: biotinylated (position not given here)) [synthetic SWL peptide (SWLAYPGAVSYR)]
